B1: TPR t1 (parent)
chain: GACCAAUCUGCCCUCAGAGCUCGAGAACAUCUUCGGAUGCAGAGGAGGCAGGCUUCGGUGGCGCGAUAGCGCCAACGUCCUCAACCUCCAAUGCAUCCCACCACAUGAUGAUGCCUGAAGAGCCUUGGUUUUUUG

Variants of: B1
Assay: polymerase ribozyme fitness, log enrichment relative to wild type (log ratio); higher = more active; in vitro selection for triplet polymerase activity
How it was run: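 Fitness measures genotype enrichment against wild-type enrichment on a logarithmic scale, with inverse-variance-weighted averaging of replicates. The logarithm is base 2, and genotypes were kept only with ≥10 input reads and ≥1 read per output in Illumina sequencing. The sequenced libraries came from one triplicate in vitro selection round, including frozen incubation at −7 °C, of PCR-built, transcribed mutant libraries of each subunit of a heterodimeric triplet polymerase ribozyme.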

Variant	polymerase ribozyme fitness (log ratio)
U78C U112A A118U	1.17
U78C U112A G113A G122C U130C	-1.11
U78C U116G	-2.79
U78C U126C U129C	-2.29
U78C U130G	-0.922
U78C U131C	-0.936
U78C U132C	-0.13
U78G	-0.246
U78G A111U U131A	-2.99
U78G C82G C99A U112G G128U	-6.81
U78G C85A G120A	-0.262
U78G C86G U112A C124G G135U	-1.2
U78G C86U	-0.465
U78G C86U U133A	-0.63
U78G C94G	-0.85
U78G C97A	-2.84
U78G C97G	-4.29
U78G C97U U116C A121U U131A	0.0734
U78G C123U	0.876
C79A A83U	-3.6
C79A A100C	-2.29
C79A C85A A119U	-5.64
C79A C88U	-1.33
C79A C89A	-3.43

Variant	polymerase ribozyme fitness (log ratio)
C79A C89A A118G	-3.86
C79A C115A	-2.1
C79A G93U	-2.82
C79A G117A	-2.46
C79A G117C	-5.12
C79A G127U	-2.57
C79A U81C C89U G93U G120C C124U	-3.62
C79A U81C G120U G135C	-2.91
C79A U87C G113U	-4.71
C79A U92C C98G C104A C114G	-7.71
C79A U112A G128U	-3.42
C79A U131C	-0.838
C79G C82G U92A A121G	-5.59
C79G C89U A91C	-4.46
C79G C115G	-4.07
C79G C124G U125A	-4.24
C79G G120A	-0.791
C79G U92C	-3.03
C79U A91U	-2.48
C79U A95C A118U	-0.263
C79U A111U	-3.01
C79U A118C	-2.46
C79U C82A U87A G110C	-4.6
C79U C88U	-0.115

Variant	polymerase ribozyme fitness (log ratio)
C79U C89A C115A	-0.609
C79U C89A G117U C123G	-1.41
C79U C94A C99U A121G	-2.9
C79U C94A C102A G120C	-2.46
C79U C94G A100C G117C	-6.32
C79U C98A	-4.92
C79U C99A U112C	-4.18
C79U C104A	-2.22
C79U G93U	-1.77
C79U G110U G120C G122A	-4.4
C79U G113A	-1.38
C79U G113A C123U U129C	-3.48
C79U G120U	0.0692
C79U G135U	-0.964
C79U U109G	-5.09
C80A	-2.86
C80A C82U A83U C101G	-5.83
C80A C86G	-5.2
C80A G93A C124A G128A	-5.36
C80A G113U	-4.78
C80A U112A	-2.64
C80A U130C	-2.51
C80G	-5.78
C80G A119U	-2.85

Variant	polymerase ribozyme fitness (log ratio)
C80G A121U	-3.78
C80G U87G C88A U112A	-4.77
C80U	-0.463
C80U A90U	-0.991
C80U A103C	-6.57
C80U A111G	-0.196
C80U C101U A121C	1.19
C80U C102A	-2.21
C80U C114A	-1.85
C80U G93C	-1.44
C80U G110A	-1.21
C80U G117A U133G	-1.17
C80U G117C	-3.58
C80U U106C	-0.325
C80U U109C	-3.85
C80U U112A	0.959
C80U U112G G117C	-5.23
C80U U131A	-0.732
U81A	-1.01
U81A C86G	-1.48
U81A C88U	-0.655
U81A C94U G117A C123G	-5.66
U81A G110A	-2.37
U81A U129C	-1.37

Variant	polymerase ribozyme fitness (log ratio)
U81C	-0.208
U81C A121G	0.253
U81C C82A	-1.8
U81C C85U A118G G122U C124U U129A	-3.58
U81C C86U U116G	-3.1
U81C C114U	-1.96
U81C C124A	0.431
U81G	-3.8
U81G C88U	-4.05
U81G C89G A121G	-4.14
U81G C94U A121G	-2.71
U81G C104U G122A	-4.33
U81G G110A	-6.43
U81G G110U G128A	-6.9
U81G U112G	-5.41
U81G U125A	-3.53
U81G U125A U131G	-4.64
U81G U129A	-5.4
C82A A118G A121G	1.48
C82A C86A	-0.787
C82A C86G	-1.3
C82A C94U	-0.596
C82A C94U C98U U106C	-2.21
C82A C102A	-2.33

Variant	polymerase ribozyme fitness (log ratio)
C82A C115A	-1.19
C82A G117U	-0.792
C82A G122A	-0.963
C82A G127A	-2.18
C82A U112A C114G	-0.66
C82A U112A U131A	1.09
C82A U112G	0.0724
C82A U116C	-0.539
C82G A83C C115G G122A	-2.67
C82G A95C G110U	-3.96
C82G A108G A111G A121C	-5.85
C82G C86A A121U	1.39
C82G C86U	-0.172
C82G C94G	-2.14
C82G C97A C124A U125G	-5.83
C82G C99A C101U A119G	-6.25
C82G C101A C115A	-2.63
C82G C102A G120A G122U	-2.05
C82G C114U	-2.95
C82G C115A C123A	-1.32
C82G C123U	0.314
C82G U109G	-5.33
C82G U112G	-2.98
C82G U116G	-2.05

Variant	polymerase ribozyme fitness (log ratio)
C82G U132A	-0.6
C82U A100C C123U	-0.0044
C82U A108U A121G	-4.59
C82U C86A C97A	-4.95
C82U C88A	-0.557
C82U C94U C114A	-2.17
C82U C114U	-2.08
C82U G93C G117U	-2.53
C82U G113C	-2.19
C82U G113U	-2.32
C82U G127A	-1.24
C82U U87A	-0.441
C82U U96A U109C	-5.99
A83C A111U	-3.57
A83C C86G	-1.46
A83C C104A	-1.32
A83C C114G	-2.24
A83C C115G	-1.92
A83C G120A	0.209
A83C G135U	-0.881
A83C U106A	0.162
A83C U106C	-0.823
A83G C97A	-5.59

Source: the RNAGym collection of RNA variant scans (doi:10.1073/pnas.2313332121)
